T1: canine CD20 on cells (HEK293, MDCK II, CLBL-1 or native B cells) (canine, UniProt Q3C2E2 1-297)
T1 construct: also called dCD20; cCD20
T1 chain: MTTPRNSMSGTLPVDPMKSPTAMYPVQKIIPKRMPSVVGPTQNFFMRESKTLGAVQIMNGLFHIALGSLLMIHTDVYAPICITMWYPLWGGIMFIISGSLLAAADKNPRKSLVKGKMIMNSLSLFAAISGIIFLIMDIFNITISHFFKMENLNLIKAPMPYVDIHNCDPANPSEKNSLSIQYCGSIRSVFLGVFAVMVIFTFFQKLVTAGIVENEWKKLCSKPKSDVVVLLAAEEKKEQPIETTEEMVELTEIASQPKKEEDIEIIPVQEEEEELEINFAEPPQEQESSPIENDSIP

B1: PMX200 (monospecific anti-canine CD3, canine IgG-B effector function deficient Fc) (antibody, V domains shown)
VH: ELTLQESGPGLVKPSQTLSLTCIVSGGSVTSSYYWNWIRQSPGRGLEWMGYWTGNTNYNPALQGRIFITADTAKNQFSLQLRSMTTEDTAVYYCARGGYGYHYGMDYWGHGTSVFVSS
VL: SYVLTQLPSKSVALKQPAHITCGGDNIGSKRVHWYQQKLGQAPALIISFDNSRPTGIPERFSGANSGNTATLTISGALAEDEADYYCQVWDSTAKASIFGGGTHLTVL
B2: PMX191 (monospecific anti-canine CD3, canine IgG-B effector function deficient Fc) (antibody, V domains shown)
VH: EVQLVESGGDLVKPAGSLRLSCVASGFTFSDYSMSWVRQGPEKGLQLVAGMNSDGSTTYYTDAVRGRFTISRDNAKNTMYLQMNSLRDEDTAIYYCAKGAAAPDYWGQGTLVTVSS
VL: SYELTQPPSVNVTLRETAHITCGGDRIGSKYVQWIQQIPGQAPVVIIYKDNNRPTGIPERFSGANSGNTATLTISGALAEDEADYYCQVGDNYTWVFGEGTQLTVL
B3: PMX192 (monospecific anti-canine CD3, canine IgG-B effector function deficient Fc) (antibody, V domains shown)
VH: EVQLVESGGDLVKPAGSLRLSCVASGFTFSDYSMSWVRQAPEKGLQLVAGINGDGSTTYYTDAVKGRFTISRDNAKNTVYLQMNSLRAEDTAMYYCAKGAGTGDFWGQGTLVTVSS
VL: SYELTQPPSVNVTLRETAHITCGGASIGRKYVQWIQQIPGQAPVVIIYKDSNRPTGIPERFSGANSGNTATLTISGALAEDEADYYCQVGDSGAWVFGEGTQLTVL
B4: PMX186 (monospecific anti-canine CD3, canine IgG-B effector function deficient Fc) (antibody)
heavy: EVKLVESGGDLVKPGGSLRLSCVASGVTFSRYYMSWVRQAPGKGLQWVAYINSGGSTTSYADAVKGRFTISRDNAKNTLYLQMNSLRAEDTAVYYCASEGVGEIYGYKDFGMDYWGHGTSLFVSSASTTAPSVFPLAPSCGSTSGSTVALACLVSGYFPEPVTVSWNSGSLTSGVHTFPSVLQSSGLYSLSSMVTVPSSRWPSETFTCNVAHPASKTKVDKPVPKRENGRVPRPPDCPKCPAPESLGGPSVFIFPPKPKDTLLIARTPEVTCVVVDLGREDPEVQISWFVDGKQMQTAKTQPREEQFNGTYRVVSVLPIGHQDWLKGKQFTCKVNHIGLPSPIERTISKARGQAHQPSVYVLPPSREELSKNTVSLTCLIKDFFPPDIDVEWQSNGQQEPESKYRTTPPQLDEDGSYFLYSKLSVDKSRWQRGDTFICAVMHEALHNHYTQKSLSHSPGK
VL: SYVLTQLPSKNVTLKQPAHITCGGDNIGSKSVHWYQQKLGQAPVLIIYYDSRRPTGIPERFSGANSGNTATLTISGALAEDEADYYCQVWDSSAKAWVFGEGTQLTVL
B5: PMX190 (monospecific anti-canine CD3, canine IgG-B effector function deficient Fc) (antibody)
heavy: EVQLVESGGDLVKPGGSLRLSCVASGFTFSSYQMSWVRQAPGKGLQWVAYISSGGGRTTYADAVRGRLTISRDNAKNTLYLQMNSLRAEDAAVYYCAREGGGEIYGYKDYGMDYWGHGTSLFVSSASTTAPSVFPLAPSCGSTSGSTVALACLVSGYFPEPVTVSWNSGSLTSGVHTFPSVLQSSGLYSLSSMVTVPSSRWPSETFTCNVAHPASKTKVDKPVPKRENGRVPRPPDCPKCPAPESLGGPSVFIFPPKPKDTLLIARTPEVTCVVVDLGREDPEVQISWFVDGKQMQTAKTQPREEQFNGTYRVVSVLPIGHQDWLKGKQFTCKVNHIGLPSPIERTISKARGQAHQPSVYVLPPSREELSKNTVSLTCLIKDFFPPDIDVEWQSNGQQEPESKYRTTPPQLDEDGSYFLYSKLSVDKSRWQRGDTFICAVMHEALHNHYTQKSLSHSPGK
VL: SYVLTQLPSKNVTLKQPAHITCGGDNIGSKSVHWYQQKLGQAPVLIIYYDSSRPTGIPERFSGANSGNTATLTISGALAEDEADYYCQVWDSSAKAWVFGEGTQLTVL
B6: PMX227 (monospecific anti-canine CD20, canine IgG-B, lambda C5) (antibody, V domains shown)
VH: EMQLVESGGALVKPGGSLRLSCVASGFTFRRYHMSWVRQAPGQGLQWVAYIDSDGSPTSYGDSVKGRFTISRDNAKNTLFLQMNSLRVDDTAVYYCTTLDYWGRGTLVTVSS
VL: SYVLTQVPSKNVTLKQPAHITCGGDNIGGKSVHWYQQKLGQAPLLIIYYDTRRPTGIPERFSGANSGNTATLTISRALAEDEADYYCQVWDSSGNVFGGGTHLTVIG
B7: PMX228 (monospecific anti-canine CD20, canine IgG-B, lambda C5) (antibody, V domains shown)
VH: EVQLVQSGGDLVKPGGSLRLSCVASGYTFTRYHMSWVRQAPGKGLQWVAFINSDGTGITYGDAVKGRFTISRDNAKNTLYLQMNSLRAEDTAIYYCTTFDSWGQGTLVTVSS
VL: SYVLTQLPSKNVTLKQPAHITCGGDNIGSKSVHWYQQKLGQAPILIIYYDSRRPTGIPERFSGANSGNTATLTISGALAEDEADYYCQVWDSSGNVFGGGTHLTVLG
B8: PMX229 (monospecific anti-canine CD20, canine IgG-B, lambda C5) (antibody, V domains shown)
VH: EVQLVESGGDLVKPGGSLRLSCVASGITFSRYHMSWVRQAPGKGLQWVAFINTGRSSTNYADAVAGRFTISRDNAKNTLYLQMNGLTVEDTAVYYCSTLDYWGQGTLVTVSS
VL: SYVLTQLPSKSVTLKQPAHITCGGDNIGSKSVHWYQQKLGQAPILIIYYDNNRPTGIPERFSGANSGNTATLTISGALAEDEADYYCHVWDSSVNVFGGGTHLTVLG
B9: PMX230 (monospecific anti-canine CD20, canine IgG-B, lambda C5) (antibody, V domains shown)
VH: EVHLVESGGDLVKPGGSLRLSCVASGITFNRYYMNWVRQTPGKGLQWVAYIDSGGSPTTYADAVKGRFTISRDNAKNTLYLQMNSLRAEDTAVYYCTSFDYWGQGTLVTVSS
VL: SYVLTQLPSKNVTLKQPAHITCGGDNIGSKSVHWYQQKLGQAPILIIYYDTSRPTGIPERFSGANSGNTATLTISGALAEDEADYYCQVWDSSANVFGGGTHLTVLG
B10: PMX265 (monospecific anti-canine CD20, canine IgG-B, lambda C5) (antibody, V domains shown)
VH: EVQLVQSGGDLVKPGGSLRLSCVASGYTFSRYHMSWVRQAPGKGLQWVAFINSDGTGITYGDAVKGRFTISRDNAKNTLYLQMNSLRAEDTAIYYCTTFDSWGQGTLVTVSS
VL: SYVLTQLPSKNVTLKQPAHITCGGDNIGSKSVHWYQQKLGQAPILIIYYDSRRPTGIPERFSGANSGNTATLTISGALAEDEADYYCQVWDSSGNVFGGGTHLTVLG
B11: PMX231 (monospecific anti-canine CD20, canine IgG-B, lambda C5) (antibody, V domains shown)
VH: EVQLVESGGDLVKPGGSLRLSCVASGLTFSRYHMSWIRQAPGKGLQWVAYISSGGSSTNYAGSVKGRFTVSRDNAKNTLYLQMNSLRAEDTAVYYCTSLDYWGQGTLVTVSS
VL: SYVLTQLPSKNVTLKQPAHITCGGDNIGSKSVHWYQQKLGQAPVLIIYYDSRRPTGIPERFSGANSGNTATLTISGALAEDEADYYCQVWDSSDNVFGGGTHLTVLG
B12: PMX236 (antibody, V domains shown)
VH: EVQLVESGGDLVKPGGSLRLSCVASGLTFSRYYMNWVRQAPGKGLQWVAYIDSGGSPTNYADAVKGRFTISRDNAKNTLYLQMNSLRAEDTAVYYCSSFDYWGQGTLVTVSS
VL: SYVVTQLPSNTVTLKQPAHITCGGDNIGSKSVHWYQQKLGQAPVLIIYYDSRRPTGIPERFSGANSGNTATLTISGALAEDEADYYCQVWDSSANVFGGGTHLTVLG
notes: also called PMX236 (monospecific anti-canine CD20, canine IgG-B, lambda C5)
B13: PMX234 (monospecific anti-canine CD20, canine IgG-B, lambda C5) (antibody, V domains shown)
VH: ELQLVESGGDLVKPGGSLRLSCVASGFTFSRYYLNWVRQAPGKGLQWVAFITSGGSSTNYADAVKGRFTISRDNAKNTLYLQMNSLRAEDTAVYYCTSFDSWGQGTLVTVSS
VL: SYVLTQLPSKNVTLKQPAHITCGGDNIGSKSVHWYQQKLGQAPVLIIYYDSSRPTGIPERFSGANSGNTATLTISGALAEDEADYYCQVWDSSANVFGGGTHLTVLG

target: canine CD3 on canine T cells (canine PBMC) (canine, UniProt P27597 22-202); assay: cell-based or functional assay
Sequence (P27597 22-202 limits assumed, chain 1 of 3): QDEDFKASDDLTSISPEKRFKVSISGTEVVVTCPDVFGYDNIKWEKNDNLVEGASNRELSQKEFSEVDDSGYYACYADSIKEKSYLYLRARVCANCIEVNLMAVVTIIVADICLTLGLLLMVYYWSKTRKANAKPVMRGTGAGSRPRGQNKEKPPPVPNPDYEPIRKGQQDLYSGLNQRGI
Sequence (chain, as listed by the source limits assumed, chain 2 of 3): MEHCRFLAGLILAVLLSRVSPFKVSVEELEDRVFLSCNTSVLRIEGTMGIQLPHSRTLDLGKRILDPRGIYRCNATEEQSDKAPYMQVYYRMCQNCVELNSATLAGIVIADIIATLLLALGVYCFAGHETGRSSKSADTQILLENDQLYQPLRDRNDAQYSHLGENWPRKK
Sequence (chain, as listed by the source limits assumed, chain 3 of 3): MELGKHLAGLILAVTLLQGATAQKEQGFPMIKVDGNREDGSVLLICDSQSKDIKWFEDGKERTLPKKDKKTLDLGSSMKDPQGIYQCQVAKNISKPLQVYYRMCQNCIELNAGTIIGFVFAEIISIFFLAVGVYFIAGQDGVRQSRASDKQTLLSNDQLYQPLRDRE

First: B1
Second: B2
The “CD25 Activation, Day 6, IS” value of the first is lower: 8.83 for the first, 8.97 for the second.

Going from B3 to B4, the “CD25 Activation, Day 6, IS” value rises from 10.4 to 10.5.

B5 was tested, and the “CD25 Activation, Day 6, IS” value was 11.3.

First: B1
Second: B2
The “CD25 Activation, Day 6, PB” value of the first is higher: 19.5 for the first, 10.5 for the second.

First: B3
Second: B4
The “CD25 Activation, Day 6, PB” value of the first is lower: 12.7 for the first, 20 for the second.

For B5, the “CD25 Activation, Day 6, PB” value was 14.8.

First: B1
Second: B2
The “CD25 Activation, Day 9, IS” value of the first is lower: 13.1 for the first, 14.2 for the second.

First: B3
Second: B4
The “CD25 Activation, Day 9, IS” value of the first is lower: 10.3 for the first, 10.9 for the second.

B5 was tested, and the “CD25 Activation, Day 9, IS” value was 13.5.

Compared with B1, B2 is lower in “CD25 Activation, Day 9, PB” value: 15 for the first, 14.9 for the second.

First: B3
Second: B4
The “CD25 Activation, Day 9, PB” value of the first is lower: 11.3 for the first, 17.6 for the second.

For B5, the “CD25 Activation, Day 9, PB” value was 11.8.

First: B1
Second: B2
The “IFNy Concentration pg/ml, Day 6, IS” value of the first is 1.9-fold higher: 59.6 pg/mL for the first, 31.9 pg/mL for the second.

Compared with B3, B4 is 2.7-fold lower in “IFNy Concentration pg/ml, Day 6, IS” value: 75.9 pg/mL for the first, 27.7 pg/mL for the second.

For B5, the “IFNy Concentration pg/ml, Day 6, IS” value was 54.4 pg/mL.

B1 and B2 are within 1.5-fold of each other in “IFNy Concentration pg/ml, Day 9, IS” value: 363 pg/mL for the first, 370 pg/mL for the second.

B3 and B4 are within 1.5-fold of each other in “IFNy Concentration pg/ml, Day 9, IS” value: 210 pg/mL for the first, 217 pg/mL for the second.

B5 was tested, and the “IFNy Concentration pg/ml, Day 9, IS” value was 384 pg/mL.

B1 and B2 are within 1.5-fold of each other in “IFNy Concentration pg/ml, Day 9, PB” value: 822 pg/mL for the first, 744 pg/mL for the second.

Compared with B3, B4 is 1.6-fold higher in “IFNy Concentration pg/ml, Day 9, PB” value: 758 pg/mL for the first, 1220 pg/mL for the second.

B5 was tested, and the “IFNy Concentration pg/ml, Day 9, PB” value was 699 pg/mL.

Compared with B1, B2 is lower in “Ki67 Proliferation, Day 6, IS” value: 0.76 for the first, 0.66 for the second.

Going from B3 to B4, the “Ki67 Proliferation, Day 6, IS” value rises from 1.29 to 2.63.

In the case of B5, the “Ki67 Proliferation, Day 6, IS” value is reported as 0.73.

First: B1
Second: B2
The “Ki67 Proliferation, Day 6, PB” value of the first is higher: 2.92 for the first, 0.35 for the second.

Going from B3 to B4, the “Ki67 Proliferation, Day 6, PB” value falls from 0.66 to 0.2.

For B5, the “Ki67 Proliferation, Day 6, PB” value was 0.98.

Compared with B1, B2 is higher in “Ki67 Proliferation, Day 9, IS” value: 1.29 for the first, 2.89 for the second.

Going from B3 to B4, the “Ki67 Proliferation, Day 9, IS” value falls from 3.65 to 1.09.

For B5, the “Ki67 Proliferation, Day 9, IS” value was 0.9.

Going from B1 to B2, the “Ki67 Proliferation, Day 9, PB” value falls from 0.78 to 0.6.

Compared with B3, B4 is lower in “Ki67 Proliferation, Day 9, PB” value: 1.56 for the first, 0.74 for the second.

In the case of B5, the “Ki67 Proliferation, Day 9, PB” value is reported as 2.73.

Target: T1, canine CD20 on cells (HEK293, MDCK II, …)
Assay: flow cytometry, canine CD20 HEK293 cells, 10 µg/ml, FITC anti-canine IgG
Description: A CD20 binding screen was performed on candidate proteins produced from the canine CD20 immunisation as described in Examples 2 and 3. CHO cells supernatants containing candidate antibodies were diluted to 10 μg/ml in FACS buffer (PBS containing 3% FBS) and screened for their ability to bind canine CD20 expressed on cell surface. In brief, 1-2×10⁵ canine CD20-expressing HEK cells were incubated with candidate mAbs for one hour at 4° C., at a fixed concentration of 10 μg/ml followed by incubation with 5 μg/ml of FITC-conjugated anti-canine IgG secondary antibody (Bethyl Laboratories) for 1 hour at 4° C. Cells incubated with anti-canine IgG FITC secondary antibody and without primary anti-canine CD20 antibody, or with isotype control primary antibody, were used as negative controls. The data were acquired on either a Beckman Coulter CytoFLEX or a BD Accuri C6 Plus flow cytometer and analysed using FlowJo software.

B6: binds.
B7: binds.
B8: binds.
B9: binds.
B10: binds.
B11: binds.
B12: binds.
B13: binds.

Reference: patent publication US20240209086A1 (PETMEDIX, published 2024)
